Where no end group is shown, it is not given here. [ ]: non-standard residue; d: D form. The star is where a group is joined. pY = N[C@@H](Cc1ccc(OP(=O)(O)O)cc1)C(=O)O; Dansyl = CN(C)c1cccc2c(S(=O)(=O)*)cccc12
Biological target: T1, Gab2 448-460 (Homo sapiens)
T1 chain: Dansyl-TNSEDN[pY]VPMNPG
Assay: stopped-flow FRET

B1: PI3K p85alpha N-SH2 N-SH2 (protein)
chain: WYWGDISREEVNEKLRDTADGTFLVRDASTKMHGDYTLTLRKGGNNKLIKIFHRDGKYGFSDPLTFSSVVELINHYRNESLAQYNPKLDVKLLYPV
- Kd: 200 nM

Source: paper PMC7247818 (2020)
